Test results taken from publication PMC8176726.

Experiments:
[1] = system: T1, His6-CssR (Corynebacterium glutamicum RES167), ORF:46f2a94e; test: EMSA; conditions: EMSA: 10 mM Tris-HCl pH 7.4, 5 mM MgCl2, 50 mM KCl, 5% glycerol, 0.1% NP40, 1 ug poly(dI:dC), 0.5 mM EDTA, 20 ng DNA in 20 ul, room temperature 30 min
T1 sequence: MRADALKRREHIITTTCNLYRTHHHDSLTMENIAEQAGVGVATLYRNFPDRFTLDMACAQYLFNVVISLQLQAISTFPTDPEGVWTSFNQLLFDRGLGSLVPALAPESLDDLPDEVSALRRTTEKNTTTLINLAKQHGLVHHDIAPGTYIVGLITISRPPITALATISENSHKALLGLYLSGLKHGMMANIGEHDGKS

[2] = system: T1, His6-CssR (Corynebacterium glutamicum RES167), ORF:46f2a94e; test: DNase I footprinting; conditions: EMSA: 10 mM Tris-HCl pH 7.4, 5 mM MgCl2, 50 mM KCl, 5% glycerol, 0.1% NP40, 1 ug poly(dI:dC), 0.5 mM EDTA, 20 ng DNA in 20 ul, room temperature 30 min
[3] = molecular target: His6-CssR (C. glutamicum stress-sensing regulator, NCgl1578) (Corynebacterium glutamicum RES167); test: SEC; Superdex 75 10/300 GL, 50 mM potassium phosphate pH 7.4, 0.15 M NaCl; calibrated with a low molecular weight gel filtration kit (Kav versus log molecular weight); native mass 52 kDa
[4] = system: His6-CssR (Corynebacterium glutamicum RES167); test: EMSA; conditions: apparent KD; EMSA: 10 mM Tris-HCl pH 7.4, 5 mM MgCl2, 50 mM KCl, 5% glycerol, 0.1% NP40, 1 ug poly(dI:dC), 0.5 mM EDTA, 20 ng DNA in 20 ul, room temperature 30 min

Substance	binding [1]	further results
GTTGTTGTCCTCTAGTTGACAGCGGGGGTGGTGGTGGTCCTAAAATAGCCTACGATAACTGATAGTGTTTCCTCCACTTACGGAAGAAGATACATGAATACCCCTCTTTTGAGAAGCTCTGGGCTCTCCAT (double strand) [131-bp PcssR]	binds	Kd [1]: 17 nM
CGTTTTAGTGCGTCTGCTCTCATGTTGTTGTCCTCTAGTTGACAGCGGGGGTGGTGGTGGTCCTAAAATAGCCTACGATAACTGATAGTGTTTCCTCCACTTACGGAAGAAGATACATGAATACCCCTCTTTTGAGAAGCTCTGGGCTCTCCATCCGCGACACACCCTTCGCCGATGTTGAGATAGCTCCAGACAGCGGACTCAC (double strand) [PcssR footprint fragment]		binding [2]: binds
CGTAATTATTTCCGCGACAAGCTATTTGCAAGCTATGTGCAGGCTCATTGCACAAGTTCAGCGCGGAGACACGTCCTAAAAAATACTTATGAAATTATGTTCGACACCGAAATGTCACCTGAAACTTCAACCAAGCCGCCAGTGCACCTATTCCACAAACCAAAAAATCCGCCAACACGAATGCGGCGGATTTTTAAGATGTACAGG (double strand) [mshC promoter]	no binding	
AACACCGCGAATTATAGACTGAACTGGTACTTGGGAAGCTTTTTATAGTCATATGCGTTGAGATACGTGGACGACAAAGCACCAGTTAGTTGCCTTCCCAGTCCAGCCCACATCCGATTTCTAAATTAGGAGCACATC (double strand) [mtr promoter]	no binding	
GAAGTTTTTCAAAGTGTCTGACGTTGAAAACGGTGAGTTCACAACTAGGGTGAATGGTGCACGTGATGCTGCACTTTTACGTTTACTACTTTGAGGGAAAC (double strand) [trx promoter]	no binding	
His6-CssR (C. glutamicum stress-sensing regulator, NCgl1578) (natural protein)		stoichiometry N [3]: 2
131-bp PcssR		Kd [4]: 17 nM
GGTATTGGGCGCATGCCATGTCCAGTGTGAAGCGATCGGGGAAGTTTCGGTATAAAGTTGCAACACCCACTCCTGCCTGTTCTGCAATGTTTTCCATGGTGAGCGAATCGTGATGGTGTGTGCGGTAGAG (double strand) [131-bp cssR coding region control]	no binding	
GATCACCGCATGTGAAACAAGCGGATACGCAATGAGCATCCCCCACGCCCACTGCACATTAAACACCCAATTCAACACCGCAAAACCCACCAAAAACAGCAGCGTCGCGATCACACAAGCAGCGTCAGATCTTTGCGGCATAGCGCCATC (double strand) [mrx1 promoter]	no binding	
